Test results: patent US20140303084A1 (Biogen, published 2014)
Square brackets hold non-standard residues; d marks the D form. Ends that are not written are not given here. Orn = NCCC[C@H](N)C(=O)O; Dab = NCC[C@H](N)C(=O)O; Dap = NC[C@H](N)C(=O)O

B1: RRAPGKLT-Dap-LASY-Asp-WLFWTGIA-CONH2 (peptide)
peptide: RRAPGKLT[Dap]LASYDWLFWTGIA-NH2
modifications: N-terminus assumed
SMILES: CC[C@H](C)[C@H](NC(=O)CNC(=O)[C@@H](NC(=O)[C@H](Cc1c[nH]c2ccccc12)NC(=O)[C@H](Cc1ccccc1)NC(=O)[C@H](CC(C)C)NC(=O)[C@H](Cc1c[nH]c2ccccc12)NC(=O)[C@H](CC(=O)O)NC(=O)[C@H](Cc1ccc(O)cc1)NC(=O)[C@H](CO)NC(=O)[C@H](C)NC(=O)[C@H](CC(C)C)NC(=O)[C@H](CN)NC(=O)[C@@H](NC(=O)[C@H](CC(C)C)NC(=O)[C@H](CCCCN)NC(=O)CNC(=O)[C@@H]1CCCN1C(=O)[C@H](C)NC(=O)[C@H](CCCNC(=N)N)NC(=O)[C@@H](N)CCCNC(=N)N)[C@@H](C)O)[C@@H](C)O)C(=O)N[C@@H](C)C(N)=O
B2: RRAPGKLT-Asp-LASY-Dab-WLFWTGIA-COOH (peptide)
peptide: RRAPGKLTDLASY[Dab]WLFWTGIA-OH
modifications: N-terminus assumed
SMILES: CC[C@H](C)[C@H](NC(=O)CNC(=O)[C@@H](NC(=O)[C@H](Cc1c[nH]c2ccccc12)NC(=O)[C@H](Cc1ccccc1)NC(=O)[C@H](CC(C)C)NC(=O)[C@H](Cc1c[nH]c2ccccc12)NC(=O)[C@H](CCN)NC(=O)[C@H](Cc1ccc(O)cc1)NC(=O)[C@H](CO)NC(=O)[C@H](C)NC(=O)[C@H](CC(C)C)NC(=O)[C@H](CC(=O)O)NC(=O)[C@@H](NC(=O)[C@H](CC(C)C)NC(=O)[C@H](CCCCN)NC(=O)CNC(=O)[C@@H]1CCCN1C(=O)[C@H](C)NC(=O)[C@H](CCCNC(=N)N)NC(=O)[C@@H](N)CCCNC(=N)N)[C@@H](C)O)[C@@H](C)O)C(=O)N[C@@H](C)C(=O)O
B3: RRAPGKLT-Asp-LASY-Orn-WLFWTGIA-COOH (peptide)
peptide: RRAPGKLTDLASY[Orn]WLFWTGIA-OH
modifications: N-terminus assumed
SMILES: CC[C@H](C)[C@H](NC(=O)CNC(=O)[C@@H](NC(=O)[C@H](Cc1c[nH]c2ccccc12)NC(=O)[C@H](Cc1ccccc1)NC(=O)[C@H](CC(C)C)NC(=O)[C@H](Cc1c[nH]c2ccccc12)NC(=O)[C@H](CCCN)NC(=O)[C@H](Cc1ccc(O)cc1)NC(=O)[C@H](CO)NC(=O)[C@H](C)NC(=O)[C@H](CC(C)C)NC(=O)[C@H](CC(=O)O)NC(=O)[C@@H](NC(=O)[C@H](CC(C)C)NC(=O)[C@H](CCCCN)NC(=O)CNC(=O)[C@@H]1CCCN1C(=O)[C@H](C)NC(=O)[C@H](CCCNC(=N)N)NC(=O)[C@@H](N)CCCNC(=N)N)[C@@H](C)O)[C@@H](C)O)C(=O)N[C@@H](C)C(=O)O
B4: RRAPGKLT-Dab-LASY-Asp-WLFWTGIA-CONH2 (peptide)
peptide: RRAPGKLT[Dab]LASYDWLFWTGIA-NH2
modifications: N-terminus assumed
SMILES: CC[C@H](C)[C@H](NC(=O)CNC(=O)[C@@H](NC(=O)[C@H](Cc1c[nH]c2ccccc12)NC(=O)[C@H](Cc1ccccc1)NC(=O)[C@H](CC(C)C)NC(=O)[C@H](Cc1c[nH]c2ccccc12)NC(=O)[C@H](CC(=O)O)NC(=O)[C@H](Cc1ccc(O)cc1)NC(=O)[C@H](CO)NC(=O)[C@H](C)NC(=O)[C@H](CC(C)C)NC(=O)[C@H](CCN)NC(=O)[C@@H](NC(=O)[C@H](CC(C)C)NC(=O)[C@H](CCCCN)NC(=O)CNC(=O)[C@@H]1CCCN1C(=O)[C@H](C)NC(=O)[C@H](CCCNC(=N)N)NC(=O)[C@@H](N)CCCNC(=N)N)[C@@H](C)O)[C@@H](C)O)C(=O)N[C@@H](C)C(N)=O
B5: RRAPGKLT-Asp-LASY-Dap-WLFWTGIA-CONH2 (peptide)
peptide: RRAPGKLTDLASY[Dap]WLFWTGIA-NH2
modifications: N-terminus assumed
SMILES: CC[C@H](C)[C@H](NC(=O)CNC(=O)[C@@H](NC(=O)[C@H](Cc1c[nH]c2ccccc12)NC(=O)[C@H](Cc1ccccc1)NC(=O)[C@H](CC(C)C)NC(=O)[C@H](Cc1c[nH]c2ccccc12)NC(=O)[C@H](CN)NC(=O)[C@H](Cc1ccc(O)cc1)NC(=O)[C@H](CO)NC(=O)[C@H](C)NC(=O)[C@H](CC(C)C)NC(=O)[C@H](CC(=O)O)NC(=O)[C@@H](NC(=O)[C@H](CC(C)C)NC(=O)[C@H](CCCCN)NC(=O)CNC(=O)[C@@H]1CCCN1C(=O)[C@H](C)NC(=O)[C@H](CCCNC(=N)N)NC(=O)[C@@H](N)CCCNC(=N)N)[C@@H](C)O)[C@@H](C)O)C(=O)N[C@@H](C)C(N)=O
B6: RRAPGKLT-Dap-LASY-Asp-WLFWTGIA-COOH (peptide)
peptide: RRAPGKLT[Dap]LASYDWLFWTGIA-OH
modifications: N-terminus assumed
SMILES: CC[C@H](C)[C@H](NC(=O)CNC(=O)[C@@H](NC(=O)[C@H](Cc1c[nH]c2ccccc12)NC(=O)[C@H](Cc1ccccc1)NC(=O)[C@H](CC(C)C)NC(=O)[C@H](Cc1c[nH]c2ccccc12)NC(=O)[C@H](CC(=O)O)NC(=O)[C@H](Cc1ccc(O)cc1)NC(=O)[C@H](CO)NC(=O)[C@H](C)NC(=O)[C@H](CC(C)C)NC(=O)[C@H](CN)NC(=O)[C@@H](NC(=O)[C@H](CC(C)C)NC(=O)[C@H](CCCCN)NC(=O)CNC(=O)[C@@H]1CCCN1C(=O)[C@H](C)NC(=O)[C@H](CCCNC(=N)N)NC(=O)[C@@H](N)CCCNC(=N)N)[C@@H](C)O)[C@@H](C)O)C(=O)N[C@@H](C)C(=O)O
B7: RRAPGKLT-Orn-LASY-Asp-WLFWTGIA-COOH (peptide)
peptide: RRAPGKLT[Orn]LASYDWLFWTGIA-OH
modifications: N-terminus assumed
SMILES: CC[C@H](C)[C@H](NC(=O)CNC(=O)[C@@H](NC(=O)[C@H](Cc1c[nH]c2ccccc12)NC(=O)[C@H](Cc1ccccc1)NC(=O)[C@H](CC(C)C)NC(=O)[C@H](Cc1c[nH]c2ccccc12)NC(=O)[C@H](CC(=O)O)NC(=O)[C@H](Cc1ccc(O)cc1)NC(=O)[C@H](CO)NC(=O)[C@H](C)NC(=O)[C@H](CC(C)C)NC(=O)[C@H](CCCN)NC(=O)[C@@H](NC(=O)[C@H](CC(C)C)NC(=O)[C@H](CCCCN)NC(=O)CNC(=O)[C@@H]1CCCN1C(=O)[C@H](C)NC(=O)[C@H](CCCNC(=N)N)NC(=O)[C@@H](N)CCCNC(=N)N)[C@@H](C)O)[C@@H](C)O)C(=O)N[C@@H](C)C(=O)O
B8: RRAPGKLT-Orn-LASY-Asp-WLFWTGIA-CONH2 (peptide)
peptide: RRAPGKLT[Orn]LASYDWLFWTGIA-NH2
modifications: N-terminus assumed
SMILES: CC[C@H](C)[C@H](NC(=O)CNC(=O)[C@@H](NC(=O)[C@H](Cc1c[nH]c2ccccc12)NC(=O)[C@H](Cc1ccccc1)NC(=O)[C@H](CC(C)C)NC(=O)[C@H](Cc1c[nH]c2ccccc12)NC(=O)[C@H](CC(=O)O)NC(=O)[C@H](Cc1ccc(O)cc1)NC(=O)[C@H](CO)NC(=O)[C@H](C)NC(=O)[C@H](CC(C)C)NC(=O)[C@H](CCCN)NC(=O)[C@@H](NC(=O)[C@H](CC(C)C)NC(=O)[C@H](CCCCN)NC(=O)CNC(=O)[C@@H]1CCCN1C(=O)[C@H](C)NC(=O)[C@H](CCCNC(=N)N)NC(=O)[C@@H](N)CCCNC(=N)N)[C@@H](C)O)[C@@H](C)O)C(=O)N[C@@H](C)C(N)=O
B9: RRAPGKLT-Asp-LASY-Orn-WLFWTGIA-CONH2 (peptide)
peptide: RRAPGKLTDLASY[Orn]WLFWTGIA-NH2
modifications: N-terminus assumed
SMILES: CC[C@H](C)[C@H](NC(=O)CNC(=O)[C@@H](NC(=O)[C@H](Cc1c[nH]c2ccccc12)NC(=O)[C@H](Cc1ccccc1)NC(=O)[C@H](CC(C)C)NC(=O)[C@H](Cc1c[nH]c2ccccc12)NC(=O)[C@H](CCCN)NC(=O)[C@H](Cc1ccc(O)cc1)NC(=O)[C@H](CO)NC(=O)[C@H](C)NC(=O)[C@H](CC(C)C)NC(=O)[C@H](CC(=O)O)NC(=O)[C@@H](NC(=O)[C@H](CC(C)C)NC(=O)[C@H](CCCCN)NC(=O)CNC(=O)[C@@H]1CCCN1C(=O)[C@H](C)NC(=O)[C@H](CCCNC(=N)N)NC(=O)[C@@H](N)CCCNC(=N)N)[C@@H](C)O)[C@@H](C)O)C(=O)N[C@@H](C)C(N)=O
B10: RRAPGKLT-Asp-LASY-Dap-WLFWTGIA-COOH (peptide)
peptide: RRAPGKLTDLASY[Dap]WLFWTGIA-OH
modifications: N-terminus assumed
SMILES: CC[C@H](C)[C@H](NC(=O)CNC(=O)[C@@H](NC(=O)[C@H](Cc1c[nH]c2ccccc12)NC(=O)[C@H](Cc1ccccc1)NC(=O)[C@H](CC(C)C)NC(=O)[C@H](Cc1c[nH]c2ccccc12)NC(=O)[C@H](CN)NC(=O)[C@H](Cc1ccc(O)cc1)NC(=O)[C@H](CO)NC(=O)[C@H](C)NC(=O)[C@H](CC(C)C)NC(=O)[C@H](CC(=O)O)NC(=O)[C@@H](NC(=O)[C@H](CC(C)C)NC(=O)[C@H](CCCCN)NC(=O)CNC(=O)[C@@H]1CCCN1C(=O)[C@H](C)NC(=O)[C@H](CCCNC(=N)N)NC(=O)[C@@H](N)CCCNC(=N)N)[C@@H](C)O)[C@@H](C)O)C(=O)N[C@@H](C)C(=O)O

Each binder was assayed against human Factor IXa (human, UniProt P00740 47-191; P00740 227-461) (assay: cell-based or functional assay).

EC50 [µM], FXa generation assay, > 1 µM:
RRAPGKLTKLASYEWLFWTGIA-NH2 [RRAPGKLT-Lys-LASY-Glu-WLFWTGIA-CONH2], B4, B5, B7, B10, RRAPGKLTKLASYDWLFWTGIA-NH2 [RRAPGKLT-Lys-LASY-Asp-WLFWTGIA-CONH2]

EC50 [µM], FXa generation assay, < 0.5 µM:
RRAPGKLTDLASYKWLFWTGIA-NH2 [RRAPGKLT-Asp-LASY-Lys-WLFWTGIA-CONH2], RRAPGKLTKLASYEWLFWTGIA-OH [RRAPGKLT-Lys-LASY-Glu-WLFWTGIA-COOH], B3, B9, RRAPGKLTDLASYKWLFWTGIA-OH [RRAPGKLT-Asp-LASY-Lys-WLFWTGIA-COOH]

EC50 [µM], FXa generation assay, > 10 µM:
RRAPGKLTKLASYDWLFWTGIA-OH [RRAPGKLT-Lys-LASY-Asp-WLFWTGIA-COOH], B1, B2, B6, B8
